Results taken from the supplement of paper PMC9112550, “Optimization of the antimicrobial peptide Bac7 by deep mutational scanning” (BMC Biology, 2022).

Test system: Escherichia coli TOP10
Assay: shrunken log2 fold change of peptide-encoding DNA abundance (4.5 h post-induction vs induction); higher = less antimicrobial activity (less host growth inhibition)
Conditions: time post-induction: 4.5 h; library: site-saturation at positions 5, 18, 19, 20
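Also: peptides expressed intracellularly from a pBAD plasmid library in pooled LB shake-flask culture, induced with 0.3% L-arabinose, DNA abundance read by NGS, three biological replicates, DESeq2 with apeglm shrinkage.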

Question: Which “shrunken log2 fold change” value does the source give for RRIRQRPPRLPRPRPRPWNIPRP here?
Answer: The value was -0.0185.

Question: Which “shrunken log2 fold change” value does the source give for RRIRQRPPRLPRPRPRPWRQPRP here?
Answer: Its value is 0.029.

Question: How did the “shrunken log2 fold change” value turn out when RRIRQRPPRLPRPRPRPWRVPRP was run?
Answer: Its value is -0.049.

Question: How did the “shrunken log2 fold change” value turn out when RRIRQRPPRLPRPRPRPWSFPRP was run?
Answer: Its value is -0.026.

Question: RRIRQRPPRLPRPRPRPWSNPRP was tested. Which “shrunken log2 fold change” value did it give?
Answer: Its value is -0.00145.

Question: RRIRQRPPRLPRPRPRPWSYPRP was tested. Which “shrunken log2 fold change” value did it give?
Answer: The value was -0.106.

Question: With RRIRQRPPRLPRPRPRPWTLPRP as the sequence, how does the “shrunken log2 fold change” value read?
Answer: Its value is -0.158.

Question: RRIRQRPPRLPRPRPRPWWGPRP was tested. Which “shrunken log2 fold change” value did it give?
Answer: Its value is 0.0786.

Question: RRIRQRPPRLPRPRPRPWWHPRP was tested. Which “shrunken log2 fold change” value did it give?
Answer: The value was 0.00797.

Question: How did the “shrunken log2 fold change” value turn out when RRIRQRPPRLPRPRPRPWWKPRP was run?
Answer: Its value is -0.00542.

Question: How did the “shrunken log2 fold change” value turn out when RRIRQRPPRLPRPRPRPWYNPRP was run?
Answer: Its value is -0.375.

Question: With RRIRQRPPRLPRPRPRPWYQPRP as the sequence, how does the “shrunken log2 fold change” value read?
Answer: Its value is -0.000894.

Question: For RRIRQRPPRLPRPRPRPWYWPRP, which “shrunken log2 fold change” value is on record?
Answer: Its value is -0.468.

Question: How did the “shrunken log2 fold change” value turn out when RRIRQRPPRLPRPRPRPYCKPRP was run?
Answer: The value was -0.257.

Question: RRIRQRPPRLPRPRPRPYCSPRP was tested. Which “shrunken log2 fold change” value did it give?
Answer: The value was -0.132.

Question: For RRIRQRPPRLPRPRPRPYENPRP, which “shrunken log2 fold change” value is on record?
Answer: The value was 0.00377.

Question: With RRIRQRPPRLPRPRPRPYFPPRP as the sequence, how does the “shrunken log2 fold change” value read?
Answer: Its value is -0.283.

Question: Which “shrunken log2 fold change” value does the source give for RRIRQRPPRLPRPRPRPYGGPRP here?
Answer: Its value is -0.29.

Question: For RRIRQRPPRLPRPRPRPYGHPRP, which “shrunken log2 fold change” value is on record?
Answer: The value was -0.473.

Question: Which “shrunken log2 fold change” value does the source give for RRIRQRPPRLPRPRPRPYGPPRP here?
Answer: Its value is -0.415.

Question: Which “shrunken log2 fold change” value does the source give for RRIRQRPPRLPRPRPRPYGWPRP here?
Answer: The value was -0.112.

Question: For RRIRQRPPRLPRPRPRPYHDPRP, which “shrunken log2 fold change” value is on record?
Answer: Its value is 0.015.

Question: How did the “shrunken log2 fold change” value turn out when RRIRQRPPRLPRPRPRPYIAPRP was run?
Answer: Its value is 0.0259.

Question: With RRIRQRPPRLPRPRPRPYIDPRP as the sequence, how does the “shrunken log2 fold change” value read?
Answer: Its value is -0.606.

Question: With RRIRQRPPRLPRPRPRPYIKPRP as the sequence, how does the “shrunken log2 fold change” value read?
Answer: The value was -1.38.

Question: Which “shrunken log2 fold change” value does the source give for RRIRQRPPRLPRPRPRPYKVPRP here?
Answer: Its value is 0.000796.

Question: With RRIRQRPPRLPRPRPRPYNPPRP as the sequence, how does the “shrunken log2 fold change” value read?
Answer: The value was -0.529.

Question: Which “shrunken log2 fold change” value does the source give for RRIRQRPPRLPRPRPRPYRKPRP here?
Answer: Its value is -0.0156.

Question: How did the “shrunken log2 fold change” value turn out when RRIRQRPPRLPRPRPRPYSVPRP was run?
Answer: The value was -0.00968.

Question: RRIRQRPPRLPRPRPRPYSYPRP was tested. Which “shrunken log2 fold change” value did it give?
Answer: The value was -0.337.

Question: RRIRQRPPRLPRPRPRPYTLPRP was tested. Which “shrunken log2 fold change” value did it give?
Answer: The value was 0.0232.

Question: How did the “shrunken log2 fold change” value turn out when RRIRQRPPRLPRPRPRPYWAPRP was run?
Answer: Its value is -0.355.

Question: Which “shrunken log2 fold change” value does the source give for RRIRQRPPRLPRPRPRPYWHPRP here?
Answer: Its value is -0.317.

Question: RRIRQRPPRLPRPRPRPYWMPRP was tested. Which “shrunken log2 fold change” value did it give?
Answer: The value was 0.0425.

Question: How did the “shrunken log2 fold change” value turn out when RRIRQRPPRLPRPRPRPYYCPRP was run?
Answer: The value was -0.332.

Question: With RRIRQRPPRLPRPRPRPYYMPRP as the sequence, how does the “shrunken log2 fold change” value read?
Answer: The value was -0.614.

Question: Which “shrunken log2 fold change” value does the source give for RRIRRRPPRLPRPRPRPACNPRP here?
Answer: Its value is 0.654.

Question: With RRIRRRPPRLPRPRPRPACSPRP as the sequence, how does the “shrunken log2 fold change” value read?
Answer: The value was 0.377.

Question: For RRIRRRPPRLPRPRPRPADCPRP, which “shrunken log2 fold change” value is on record?
Answer: The value was 0.0869.

Question: For RRIRRRPPRLPRPRPRPADWPRP, which “shrunken log2 fold change” value is on record?
Answer: Its value is 0.652.

Question: For RRIRRRPPRLPRPRPRPAEIPRP, which “shrunken log2 fold change” value is on record?
Answer: The value was 1.1.

Question: With RRIRRRPPRLPRPRPRPAFCPRP as the sequence, how does the “shrunken log2 fold change” value read?
Answer: Its value is 0.404.

Question: For RRIRRRPPRLPRPRPRPAFEPRP, which “shrunken log2 fold change” value is on record?
Answer: Its value is 0.54.

Question: For RRIRRRPPRLPRPRPRPAHGPRP, which “shrunken log2 fold change” value is on record?
Answer: Its value is 0.279.

Question: RRIRRRPPRLPRPRPRPAKSPRP was tested. Which “shrunken log2 fold change” value did it give?
Answer: Its value is 0.242.

Question: For RRIRRRPPRLPRPRPRPALCPRP, which “shrunken log2 fold change” value is on record?
Answer: Its value is 0.334.

Question: How did the “shrunken log2 fold change” value turn out when RRIRRRPPRLPRPRPRPAMTPRP was run?
Answer: Its value is 0.314.

Question: For RRIRRRPPRLPRPRPRPANDPRP, which “shrunken log2 fold change” value is on record?
Answer: The value was 0.275.

Question: RRIRRRPPRLPRPRPRPAQIPRP was tested. Which “shrunken log2 fold change” value did it give?
Answer: Its value is 0.494.

Question: For RRIRRRPPRLPRPRPRPARYPRP, which “shrunken log2 fold change” value is on record?
Answer: The value was 0.317.

Question: RRIRRRPPRLPRPRPRPASKPRP was tested. Which “shrunken log2 fold change” value did it give?
Answer: The value was 0.276.

Question: For RRIRRRPPRLPRPRPRPATTPRP, which “shrunken log2 fold change” value is on record?
Answer: Its value is 0.092.

Question: RRIRRRPPRLPRPRPRPAVGPRP was tested. Which “shrunken log2 fold change” value did it give?
Answer: Its value is 0.344.

Question: Which “shrunken log2 fold change” value does the source give for RRIRRRPPRLPRPRPRPAVPPRP here?
Answer: Its value is 0.146.

Question: RRIRRRPPRLPRPRPRPAWHPRP was tested. Which “shrunken log2 fold change” value did it give?
Answer: Its value is 0.527.

Question: For RRIRRRPPRLPRPRPRPAYIPRP, which “shrunken log2 fold change” value is on record?
Answer: Its value is -0.201.

Question: With RRIRRRPPRLPRPRPRPCAFPRP as the sequence, how does the “shrunken log2 fold change” value read?
Answer: The value was 0.123.

Question: RRIRRRPPRLPRPRPRPCCKPRP was tested. Which “shrunken log2 fold change” value did it give?
Answer: Its value is -0.0824.

Question: RRIRRRPPRLPRPRPRPCEIPRP was tested. Which “shrunken log2 fold change” value did it give?
Answer: The value was 0.0684.

Question: Which “shrunken log2 fold change” value does the source give for RRIRRRPPRLPRPRPRPCFEPRP here?
Answer: Its value is 0.0864.

Question: For RRIRRRPPRLPRPRPRPCFGPRP, which “shrunken log2 fold change” value is on record?
Answer: The value was 0.0921.

Question: Which “shrunken log2 fold change” value does the source give for RRIRRRPPRLPRPRPRPCFNPRP here?
Answer: Its value is -0.271.

Question: RRIRRRPPRLPRPRPRPCGCPRP was tested. Which “shrunken log2 fold change” value did it give?
Answer: The value was 0.0953.

Question: How did the “shrunken log2 fold change” value turn out when RRIRRRPPRLPRPRPRPCGFPRP was run?
Answer: Its value is 0.265.

Question: For RRIRRRPPRLPRPRPRPCGPPRP, which “shrunken log2 fold change” value is on record?
Answer: The value was 0.517.

Question: How did the “shrunken log2 fold change” value turn out when RRIRRRPPRLPRPRPRPCHHPRP was run?
Answer: Its value is -0.0387.

Question: How did the “shrunken log2 fold change” value turn out when RRIRRRPPRLPRPRPRPCHTPRP was run?
Answer: The value was -0.24.

Question: For RRIRRRPPRLPRPRPRPCIVPRP, which “shrunken log2 fold change” value is on record?
Answer: Its value is -0.183.

Question: RRIRRRPPRLPRPRPRPCKAPRP was tested. Which “shrunken log2 fold change” value did it give?
Answer: The value was 0.122.

Question: With RRIRRRPPRLPRPRPRPCKKPRP as the sequence, how does the “shrunken log2 fold change” value read?
Answer: Its value is 0.0185.

Question: For RRIRRRPPRLPRPRPRPCLWPRP, which “shrunken log2 fold change” value is on record?
Answer: Its value is 0.407.

Question: With RRIRRRPPRLPRPRPRPCNWPRP as the sequence, how does the “shrunken log2 fold change” value read?
Answer: The value was -0.0134.

Question: Which “shrunken log2 fold change” value does the source give for RRIRRRPPRLPRPRPRPCPEPRP here?
Answer: Its value is 0.0178.

Question: RRIRRRPPRLPRPRPRPCPLPRP was tested. Which “shrunken log2 fold change” value did it give?
Answer: Its value is 0.262.

Question: For RRIRRRPPRLPRPRPRPCPRPRP, which “shrunken log2 fold change” value is on record?
Answer: Its value is 0.0796.
